Laboratory results published in the RNAGym collection of RNA variant scans (doi:10.7554/elife.80360).

B1: HDV Ribozyme (parent)
chain: GGCCGGCAUGGUCCCAGCCUCCUCGCUGGCGCCGGCUGGGCAACAUUCCGAGGGGACCGUCCCCUCGGUAAUGGCGAAUGGGACCCA

Variants of: B1
Assay: self-cleavage, relative activity (ratio to wild type); higher = more cleavage; co-transcriptional

Row | Variant | self-cleavage
1 | GGCCGGCAUGGUCCCAGCCUCCUCGCUGGCGCCGGCUGGGCAACAUUCCGAGGGGACCGACCUCUCGGUAAUGGCGAAUGGGACCCA [U60A C63U] | 0.972
2 | GGCCGGCAUGGUCCCAGCCUCCUCGCUGGCGCCGGCUGGGCAACAUUCCGAGGAGACCGUCCCCUCGGUAAUGGAGAAUGGGACCCA [G54A C75A] | 0.211
3 | GGCCGGCAUGGUCCCAGCCUCCUCGCUGGCGCCGGCUGGGCAACAUUCCGAGGGGACCGUCCCCUCGGUAACGGCGAAUGGGACACA [U72C C85A] | 0.633
4 | GGCGGGCAUGGUCCCAGCCUCCUCGCUGGCGCCGGCUGGGCGACAUUCCGAGGGGACCGUCCCCUCGGUAAUGGCGAAUGGGACCCA [C4G A42G] | 0
5 | GGCCGGCAUGGUCCCAGCCUCCUCGCGGGCGCCGGCUGGGCAACAUUCCGAGGGGAGCGUCCCCUCGGUAAUGGCGAAUGGGACCCA [U27G C57G] | 0.895
6 | GGCCGGCAUGGCCCCAGCCUCAUCGCUGGCGCCGGCUGGGCAACAUUCCGAGGGGACCGUCCCCUCGGUAAUGGCGAAUGGGACCCA [U12C C22A] | 0.115
7 | GGCCGGCAUGGGCCCAGCCUCCUCGCUGACGCCGGCUGGGCAACAUUCCGAGGGGACCGUCCCCUCGGUAAUGGCGAAUGGGACCCA [U12G G29A] | 0.0978
8 | GGCCGGCAUGGUCCCAGCCUCCUCGCUGGCGCGGGCUGGGCAACAUUCCGAGGGGACCGUCCCCUCGGUAAUGGCGAAUGGGUCCCA [C33G A83U] | 0.162
9 | GGCCGGCAUGGUCCCAGCCUCCUCGCUGGCGCCGGCUGGGCAACAUUCCGAGGGGACCGUCCCCUCGGUAAUGGCGAACGGGACCCC [U79C A87C] | 0.35
10 | GGCCGGCAUUGUCCCAGCCUCCUCGCUGGCGCCGGCUGGGCAACAUUCCGAGGGGACCGUCCCCUCGGUAAUGGCGAAUAGGACCCA [G10U G80A] | 0.131
11 | GGCCGGCAUGGUCCCAGCCCCCUCGCUGGCGCCGGCUGGGCAACAUUCCGAGGGGACCGUCCCCUCGGUAAUGGCGAAUGGGACACA [U20C C85A] | 0.119
12 | GGCCGGCAUGGUCCCAGCCUCCUCGCUGGCGCCGGCUGGGCAACAUUCCGAGGGGACCGCCCCCUCGGUAAUGGCGAAUGGGAGCCA [U60C C84G] | 0.856
13 | GGCCGGCAUGGUCCCAGCCUCCUCGCUGGCGGCGGCUGGGCAACAUUCCGAGGGGACCGUCCCCUCGGUAAUGGCGAAUGGGACCCG [C32G A87G] | 0.0665
14 | GACCGGCAUGGUCCUAGCCUCCUCGCUGGCGCCGGCUGGGCAACAUUCCGAGGGGACCGUCCCCUCGGUAAUGGCGAAUGGGACCCA [G2A C15U] | 0.113
15 | GGCCGGCAUGGUCCCAGCCUCCUCGCCGGAGCCGGCUGGGCAACAUUCCGAGGGGACCGUCCCCUCGGUAAUGGCGAAUGGGACCCA [U27C C30A] | 0.415
16 | GGCCGGCAUGGUCCCGGCCUCCUCGCUGGCGCCGGCUGGGCAACAUUCCGAGGGGACCGUCGCCUCGGUAAUGGCGAAUGGGACCCA [A16G C62G] | 0.369

Row | Variant | self-cleavage
17 | GGCCGGCAUGGUCCCAGCCUCCUCGGUGGCGCCGGCUGGGCAACAUUCCGAGGGGACCGUCCCCUCGGUAAUGGCGAAUAGGACCCA [C26G G80A] | 0.789
18 | GGCCGGCAUGGUCCCAGACUCCUCGCUGGCGCCGGCUGGGCAACAUUCCGAGGGGACCGUCCCCUCGGUAAUGGCGAAUAGGACCCA [C18A G80A] | 0.0963
19 | GGCCGGCAUGGUCCCAGCAUCCUCGCUGGCGCAGGCUGGGCAACAUUCCGAGGGGACCGUCCCCUCGGUAAUGGCGAAUGGGACCCA [C19A C33A] | 0.0852
20 | GGCCGGCAUGGUCCCAGCCUCCUCGCUGGCGCCGGCUGGGCAACAUUCCGACGGGACCGUCCCCUCGGUAAUGGCGUAUGGGACCCA [G52C A77U] | 0.731
21 | GGCCGGCAUGGUCCCAGCCUCCUCGCUGGCGCCGGCUGGGCAACAUUCCCAGGGGACCGUCCCCUGGGUAAUGGCGAAUGGGACCCA [G50C C66G] | 0.912
22 | GGCCGGCAUGGUCCCAGCCUCCUCGCUGUCGCCGGCUGGGCAACAUUCCGAGGGGGCCGUCCCCUCGGUAAUGGCGAAUGGGACCCA [G29U A56G] | 0.227
23 | GGCCGGCAUGGUCGCAGCCUCCUCGCUGGCGCCGGCUGGGCAACAUUCCGAGGGGAACGUCCCCUCGGUAAUGGCGAAUGGGACCCA [C14G C57A] | 0.748
24 | GGCCGGCAUGGUCCCAGCCUCCUCGCUGGCGCCGGCUGGGCAACAAUCCGAGGGGACCGUCCCCUCGGUAAUGGCAAAUGGGACCCA [U46A G76A] | 0.831
25 | GGCCGGCAUGGUCCCAGCCUCCUCGGUGGCGCCGGCUGGGCAACAUUCCGAGGGGACCGUCCCCUCGGUAAUGGCGAUUGGGACCCA [C26G A78U] | 0.401
26 | GGCCGGCAUGGUCCCAGCCUCCUCGCUGGCGCCGGCUGGGCAACAUUCCGAGGGGACCGACCCCUCGGUAAUGGCGAGUGGGACCCA [U60A A78G] | 0.808
27 | GGCCGGCAUGGUCCCAGCCUCCUCGCUGGCGCCGGCUGGGCAAGAUUCCGAGGGGACCGUCCCCUCGGUACUGGCGAAUGGGACCCA [C44G A71C] | 0.76
28 | GGCCGGCAUGGUCCCAGCCUCCUCGCUGGCGCCGGCUGGGCAACAUUCCAAGGGAACCGUCCCCUCGGUAAUGGCGAAUGGGACCCA [G50A G55A] | 0.783
29 | GGCCGGCAUGGUCCCAGCCUCCUCGCUGGCGCCGGCUGGGCAACAUUCCGAGGGGACCGUCCACUCGGUAAUGGCGAAUGUGACCCA [C63A G81U] | 0.244
30 | GGCCGGCAUGGUCCCAGCCUCCUCGCUGGCGCCGGCUGGGCAACAUUCCGAUGGGACCGUCCCCUCGGUAAUGGCGAAUGGGACCUA [G52U C86U] | 1.02
31 | GGCCGGCAUGGUCCCAGCCUCCUCGCUGGCGCCGGCUGGGCAACAUUCCGAGGGGACCGUCCCAUCCGUAAUGGCGAAUGGGACCCA [C64A G67C] | 0.277
32 | GGCCGGCAUGGUCCCAGCCUCCUCACUGGCGCCGGCUGGGCAACAUUCCGAGGGGACCGUCCCCUCUGUAAUGGCGAAUGGGACCCA [G25A G67U] | 0.401
